Assay results taken from patent US20080038735A1 (DOMANTIS, published 2008).
Numbering of substitutions follows the chain as printed. Values belong to the binder of their own block, whether it stands above or below them.

Columns and labels:
[1] = biological target: T1, TNFa (UniProt P01375 77-233, biotinylated (sites not given)); experiment: ELISA: in vitro translated dAb captured on the plate, incubated with a concentration range of biotinylated TNFa, detected with streptavidin-HRP
T1 construct: also called biotinylated TNFa; bio-TNFa
T1 sequence (P01375 77-233 limits assumed): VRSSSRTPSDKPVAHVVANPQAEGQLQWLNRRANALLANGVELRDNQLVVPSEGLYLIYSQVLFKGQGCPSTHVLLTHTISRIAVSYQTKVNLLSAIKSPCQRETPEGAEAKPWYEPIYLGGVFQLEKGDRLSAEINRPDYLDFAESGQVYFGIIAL
Experimental: (§1) The ligation mixture was transformed to XL-10 gold cells (Stratagene) and cells were plated. […] The typical amplification cycle for this PCR is performed with platinum pfx DNA polymerase (invitrogen) and consists of: initial denaturation of 3 min at 95 C, followed by 25 cycles of 30 seconds at 95 C, 30 seconds at 60 C, and 2 minutes at 68 C; and a final extension at 68 C for 3 minutes. The PCR product is cleaned on a Qiagen spin column, eluted and the DNA concentration determined by OD 260/280. The cleaned PCR product is used for in vitro transcription/translation (IVT). A typical 50 μl IVT reaction consists of 500 ng of DNA, 2.0 λl methionine (5 mM), 1.5 μl oxidized glutathione (100 mM) (Sigma), 35 μl bacterial extract, e.g. EcoPro (Novagen), and 11 μl H₂O. The IVT reaction can be performed for 1 up to 4 hours at temperatures between 20 C and 37 C. After IVT, the reaction is diluted 1 in 10 in PBS+0.2% tween-20. Fifty μl are added to an ELISA plate, that has been coated with anti-HA (3F10, Roche) (1 μg/ml in PBS), and incubated for 1 hour at room temperature. After washing, a concentration range (0-500 nM) of biotinylated antigen, i.e. TNFa, is added and incubated on the plate for 1 hour. Again, plate is washed and streptavidin conjugated to horse radish peroxidase (Streptavidin-HRP, Amersham) at a dilution of 1:3500 is added and incubated on the plate for 30 minutes.

[2] = biological target: T1, TNFa; experiment: not stated (told as a known affinity); higher affinity dAb, known affinity
[3] = biological target: T1, TNFa; experiment: ELISA: in vitro translated E5 construct captured on the plate, incubated with a concentration range of biotinylated TNFa, streptavidin-HRP; the sheet does not say whether E5 is free or fused to Tus
Experimental: as §1

EC50 (read off the curve) [1]: ~7 nM | Kd [2]: 50 nM
B1: Vk(TAR1-5-19) (other)
VL: MASTDIQMTQSPSSLSASVGDRVTITCRASQSIDSYLHWYQQKPGKAPKLLIYSASELQSGVPSRFSGSGSGTDFTLTISSLQPEDFATYYCQQVVWRPFTFGQGTKVEIKRAA
notes: Vk domain antibody tested as free dAb; also called free dAb; monomeric domain antibody in solution

binding result [3]: no binding (tested: 1000 nM)
B2: Vk(E5) (other)
VL: B1 VL with I33V, D34S, H38N, S54L, E57R, V95N, V96W, R98L, F100P
notes: also called Anti-beta-galactosidase Vk clone E5; 7t^3T.Vk(E5)
